Results: publication PMC3105396 (Nucleic Acids Research, 2011)

Biological target: POLRMT.STREP2 (POLRMT carrying a FLAG and a STREP2 binding group) (human, UniProt O00411 42-1230)
Assay: pull-down

Chain of POLRMT.STREP2 (POLRMT carrying a FLAG and a STREP2 binding group) (O00411 42-1230): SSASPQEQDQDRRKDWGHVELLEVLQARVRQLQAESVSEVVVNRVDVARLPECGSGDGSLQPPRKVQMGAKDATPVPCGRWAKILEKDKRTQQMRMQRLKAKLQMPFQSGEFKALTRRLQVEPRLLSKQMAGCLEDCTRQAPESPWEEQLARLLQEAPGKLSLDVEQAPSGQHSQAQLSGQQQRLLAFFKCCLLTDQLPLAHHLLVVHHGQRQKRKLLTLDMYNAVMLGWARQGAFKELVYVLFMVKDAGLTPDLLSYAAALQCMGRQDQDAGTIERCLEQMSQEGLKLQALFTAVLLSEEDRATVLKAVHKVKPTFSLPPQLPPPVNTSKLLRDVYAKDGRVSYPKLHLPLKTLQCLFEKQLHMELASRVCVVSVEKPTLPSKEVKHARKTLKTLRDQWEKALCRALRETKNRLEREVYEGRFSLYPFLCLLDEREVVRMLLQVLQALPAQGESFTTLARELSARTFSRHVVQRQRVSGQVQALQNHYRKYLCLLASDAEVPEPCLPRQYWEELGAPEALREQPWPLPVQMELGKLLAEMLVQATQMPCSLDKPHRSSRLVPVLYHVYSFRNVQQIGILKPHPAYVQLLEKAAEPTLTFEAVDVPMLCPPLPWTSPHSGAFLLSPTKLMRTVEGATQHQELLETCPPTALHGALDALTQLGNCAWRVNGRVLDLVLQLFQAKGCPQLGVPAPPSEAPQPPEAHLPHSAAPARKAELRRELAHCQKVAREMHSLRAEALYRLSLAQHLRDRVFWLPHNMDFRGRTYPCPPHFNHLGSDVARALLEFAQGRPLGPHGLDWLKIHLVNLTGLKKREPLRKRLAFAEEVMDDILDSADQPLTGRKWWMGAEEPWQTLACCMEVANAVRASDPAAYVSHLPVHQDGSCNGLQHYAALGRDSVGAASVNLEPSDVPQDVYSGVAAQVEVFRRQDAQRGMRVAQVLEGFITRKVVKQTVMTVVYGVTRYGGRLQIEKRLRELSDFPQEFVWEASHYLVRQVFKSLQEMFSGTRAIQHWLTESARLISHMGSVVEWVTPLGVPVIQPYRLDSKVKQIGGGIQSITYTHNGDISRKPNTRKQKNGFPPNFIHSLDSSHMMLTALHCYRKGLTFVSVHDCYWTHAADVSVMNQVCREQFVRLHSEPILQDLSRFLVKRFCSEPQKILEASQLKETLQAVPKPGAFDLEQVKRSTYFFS

- amount in the POLRMT.STREP2 peak elution fractions relative to TFAM: 2 fold
- amount in the POLRMT.STREP2 peak elution fractions relative to TFB2M: 5 fold
B1: TEFM (transcription elongation factor of mitochondria), endogenous (natural protein, human (endogenous in HEK 293T), UniProt Q96QE5 36-360, looked up)
chain: KSTTPKKITPNVTFCDENAKEPENALDKLFSSEQQASILHVLNTASTKELEAFRLLRGRRSINIVEHRENFGPFQNLESLMNVPLFKYKSTVQVCNSILCPKTGREKRKSPENRFLRKLLKPDIERERLKAVNSIISIVFGTRRIAWAHLDRKLTVLDWQQSDRWSLMRGIYSSSVYLEEISSIISKMPKADFYVLEKTGLSIQNSSLFPILLHFHIMEAMLYALLNKTFAQDGQHQVLSMNRNAVGKHFELMIGDSRTSGKELVKQFLFDSILKADPRVFFPSDKIVHYRQMFLSTELQRVEELYDSLLQAIAFYELAVFDSQP
